This note sets out measurements from US20130156781A1 (GOVT OF THE UNITED STATES OF AMERICA H H N I H OFFICE OF …, published 2013).

One test addresses T1, DR5 (UniProt O14763 56-182, limits assumed).
T1 construct: also called TRAIL-R2
Briefly: ELISA. Background: An ELISA detects its analyte on a solid surface through an enzyme-linked reagent.

Test [1] deals with T2, Recombinant human rTRAIL receptor 1 (DR4), extracellular part, amino acids 25-239 (human, UniProt O00220 25-239).
T2 construct: also called rDR4; recombinant DR4
T2 sequence: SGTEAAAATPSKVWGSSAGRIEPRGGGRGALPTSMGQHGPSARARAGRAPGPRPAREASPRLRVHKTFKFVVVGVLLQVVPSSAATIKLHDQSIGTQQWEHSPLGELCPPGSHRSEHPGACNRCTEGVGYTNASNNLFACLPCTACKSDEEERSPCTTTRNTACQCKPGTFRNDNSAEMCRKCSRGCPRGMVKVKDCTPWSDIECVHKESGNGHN
The test can be described thus: ELISA, DR4 coated at 50 ng/well, IgG1 detected with anti-human Fc-HRP. As for the experimental part: To testing binding of recombinant antibodies to DR4 in vitro, DR4 protein was coated onto half-area ELISA plate at 50 ng/well. After blocking with MPBS, different dilutions of antibodies were incubated with coated wells. For detection of binding antibodies, secondary antibody goat anti-Flag tag-HRP and goat anti-human Fc-HRP (both used at 1:1000) were used to detect Fab or IgG. The ELISA signal was developed with substrate ABTS, and read under wavelength 405 nm. […] The mixture was then added to wells for ELISA.

One may read the EC50 as the concentration that produces a half-maximal response.

B1: m922 IgG1 (antibody, V domains shown)
VH: QVQLQQSGPGLVKPSQTLSLTCAISGDSVSSNSAAWNWIRQSPSRGLEWLGRTYYRSKWYNDYAVSVKSRITINPDTSKNQFSLQLNSVTPEDTAVYYCARETVAVDAFDIWGQGTMVTVSS
VL: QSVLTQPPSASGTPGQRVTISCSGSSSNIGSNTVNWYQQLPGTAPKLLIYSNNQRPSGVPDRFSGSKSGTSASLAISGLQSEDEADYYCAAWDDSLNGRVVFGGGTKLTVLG
notes: also called IgG m922; DR4 m922 IgG
Consider B1, for which, in the test with DR5, the binding result was “no binding (tested: 1000 nM)”. In addition, the EC50 in test [1] was roughly 10 nM.

B2: m921 IgG1 (antibody, V domains shown)
VH: QVQLQQSGPGLVKPSQTLSLTCAISGDSVSSNSAAWNWIRQSPSRGLEWLGRTYYRSKWYNDYAVSVKGRITINPDTSKNQFSLQLNSVTPEDTAVYYCARDLGVAAADSYYYYGMDVWGQGTTVTVSS
VL: QPVLTQPPSASATPGQRVTISCSGSSSNIGSNTLDWFQQLPGTAPKLLIFDTNRRPSGVPDRFSGSKSGTSASLAISGLQAEDEAVYFCATWDNSLNGAVFGGGTKLSVPR
notes: also called IgG m921; DR4 IgG m921
As for B2, in the test with DR5, the binding result is on record as “no binding (tested: 1000 nM)”. Moreover, the EC50 in test [1] is roughly 10 nM.
